In patent US20190336615A1 (SILVERBACK THERAPEUTICS, published 2019):

T1: monomeric human CEA extracellular domain (CEA ECD; CEACAM5) (human, UniProt P06731 35-685)
T1 construct: extracellular domain; not tied to the assay protein; also called CEACAM5 (CEA)
T1 sequence (looked up): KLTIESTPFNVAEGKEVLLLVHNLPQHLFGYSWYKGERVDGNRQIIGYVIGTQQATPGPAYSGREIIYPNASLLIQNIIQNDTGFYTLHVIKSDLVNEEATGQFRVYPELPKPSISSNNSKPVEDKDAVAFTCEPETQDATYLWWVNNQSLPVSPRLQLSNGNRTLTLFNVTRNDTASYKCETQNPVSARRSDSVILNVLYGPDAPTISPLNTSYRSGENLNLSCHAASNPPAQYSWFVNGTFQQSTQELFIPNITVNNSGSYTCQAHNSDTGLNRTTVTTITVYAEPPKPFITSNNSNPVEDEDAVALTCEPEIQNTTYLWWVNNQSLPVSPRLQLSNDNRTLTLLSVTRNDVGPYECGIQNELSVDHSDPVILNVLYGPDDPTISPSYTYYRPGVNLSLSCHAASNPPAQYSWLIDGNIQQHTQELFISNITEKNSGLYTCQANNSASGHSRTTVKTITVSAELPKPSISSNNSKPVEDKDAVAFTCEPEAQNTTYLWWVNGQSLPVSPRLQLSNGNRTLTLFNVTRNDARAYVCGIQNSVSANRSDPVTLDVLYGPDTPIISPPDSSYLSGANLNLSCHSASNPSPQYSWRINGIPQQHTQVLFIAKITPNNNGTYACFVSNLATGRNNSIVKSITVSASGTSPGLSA


Tests used:
[1] = molecular target: T2, human HER2 expressed on transiently transfected CHO cells (human, UniProt P04626 23-1255); assay: statement in the macrophage ADCC assay with HER2-expressing CHO cells
T2 construct: whole, on cells; also called HER2-expressing CHO cells; CHO-HER2
Protocol: Monocyte-derived macrophages were generated by culturing monocytes for 7 days in the presence of GM-CSF. […] After 24 hours, CHO viability was assessed by flow cytometry as a readout of ADCC activity.
Monocytes were isolated from human peripheral blood mononuclear cells (PBMCs) using magnetic bead-based negative selection and cultured 7 days in the presence of GM-CSF to generate macrophages. A CHO cell line was engineered to overexpress human HER2 using standard transient transfection methods and used in assays 2 days after transfection. […] After 24 hours, CHO frequency was assessed by flow cytometry as a readout of ADCC activity.

[2] = molecular target: T1, monomeric human CEA extracellular …; assay: BLI (Octet), antibody on anti-human Fc sensor, monomeric ECD analyte, 1:1 model
Protocol: (§1) The Octet systems use propriety BLI to analyze biomolecular interaction. […] Data were analyzed using Octet Data Analysis Software 9.0 (ForteBio) and fitted to the 1:1 binding model. Equilibrium dissociation constants (KD) were calculated by the […].

[3] = molecular target: T3, monomeric human HER2 extracellular domain (HER2 ECD) (human, UniProt P04626 23-652); assay: as above
T3 construct: extracellular domain; not tied to the assay protein; also called Hu Her2
Source text: (§2) The Octet systems use propriety BLI to analyze biomolecular interaction.

[4] = molecular target: T4, monomeric human DEC205 extracellular domain (DEC205 ECD) (human, UniProt O60449 28-1666); assay: as above
T4 construct: extracellular domain; none tied to the assay protein
T4 sequence (O60449 28-1666): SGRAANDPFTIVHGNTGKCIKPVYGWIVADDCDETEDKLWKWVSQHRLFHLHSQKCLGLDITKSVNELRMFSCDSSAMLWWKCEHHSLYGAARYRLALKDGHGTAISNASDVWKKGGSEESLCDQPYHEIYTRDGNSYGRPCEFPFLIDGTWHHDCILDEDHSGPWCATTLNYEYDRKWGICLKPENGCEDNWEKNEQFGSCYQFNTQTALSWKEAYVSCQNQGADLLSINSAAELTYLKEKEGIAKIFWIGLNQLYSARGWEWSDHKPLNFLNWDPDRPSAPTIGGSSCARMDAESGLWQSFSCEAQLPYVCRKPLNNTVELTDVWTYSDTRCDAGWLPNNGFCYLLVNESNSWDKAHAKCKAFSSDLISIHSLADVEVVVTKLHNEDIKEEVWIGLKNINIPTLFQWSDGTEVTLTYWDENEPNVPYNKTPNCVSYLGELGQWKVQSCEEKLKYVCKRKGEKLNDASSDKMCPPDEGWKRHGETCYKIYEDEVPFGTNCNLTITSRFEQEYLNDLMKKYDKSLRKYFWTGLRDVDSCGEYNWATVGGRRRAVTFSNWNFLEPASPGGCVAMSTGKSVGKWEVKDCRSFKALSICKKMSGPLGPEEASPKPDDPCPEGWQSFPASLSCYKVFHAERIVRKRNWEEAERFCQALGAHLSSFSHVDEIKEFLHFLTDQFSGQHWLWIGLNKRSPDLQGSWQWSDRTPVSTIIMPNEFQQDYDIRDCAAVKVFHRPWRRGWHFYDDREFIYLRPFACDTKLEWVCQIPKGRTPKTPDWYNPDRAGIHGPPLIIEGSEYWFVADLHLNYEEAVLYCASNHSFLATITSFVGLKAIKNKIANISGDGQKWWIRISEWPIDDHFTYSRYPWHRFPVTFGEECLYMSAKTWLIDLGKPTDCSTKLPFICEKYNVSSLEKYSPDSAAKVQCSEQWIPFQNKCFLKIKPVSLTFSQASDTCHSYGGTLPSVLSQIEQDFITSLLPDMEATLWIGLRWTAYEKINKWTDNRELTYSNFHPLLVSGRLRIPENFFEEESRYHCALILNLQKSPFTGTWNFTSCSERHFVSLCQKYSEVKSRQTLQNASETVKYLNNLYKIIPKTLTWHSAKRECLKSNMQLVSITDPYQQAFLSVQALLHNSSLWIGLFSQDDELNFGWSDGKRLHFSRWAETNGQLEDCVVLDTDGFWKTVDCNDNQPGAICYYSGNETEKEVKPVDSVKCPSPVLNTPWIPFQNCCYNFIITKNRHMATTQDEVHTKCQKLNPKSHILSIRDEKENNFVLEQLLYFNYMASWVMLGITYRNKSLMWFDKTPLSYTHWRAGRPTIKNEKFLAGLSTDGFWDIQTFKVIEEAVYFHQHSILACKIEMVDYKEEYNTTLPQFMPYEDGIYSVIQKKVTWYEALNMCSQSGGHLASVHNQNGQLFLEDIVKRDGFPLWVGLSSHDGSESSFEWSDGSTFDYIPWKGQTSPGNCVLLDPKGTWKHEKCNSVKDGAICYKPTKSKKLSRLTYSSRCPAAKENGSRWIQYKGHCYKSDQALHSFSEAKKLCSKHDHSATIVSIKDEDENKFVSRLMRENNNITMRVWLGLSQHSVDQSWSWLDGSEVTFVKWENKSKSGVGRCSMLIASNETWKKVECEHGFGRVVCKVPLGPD
Protocol: as §1

[5] = molecular target: T5, monomeric human CD40 extracellular domain (CD40 ECD) (human, UniProt P25942 21-193); assay: as above
T5 construct: extracellular domain; it is not tied to the assay protein; also called Hu CD40
T5 sequence (P25942 21-193): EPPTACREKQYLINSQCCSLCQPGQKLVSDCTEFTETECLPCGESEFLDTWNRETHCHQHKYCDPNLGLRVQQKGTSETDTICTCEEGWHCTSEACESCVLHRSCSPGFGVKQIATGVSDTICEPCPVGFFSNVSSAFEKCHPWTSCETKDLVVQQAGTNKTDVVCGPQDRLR
Source text: as §2

binding result [1] | binding result [2] | binding result [3] | binding result [4] | binding result [5] | Binder
no binding | no binding (tested: 1.2 nM to 300 nM) | no binding (tested: 1.2 nM to 300 nM) |  |  | parental anti-CD40 monoclonal antibody (SBT-040G1) (antibody, human IgG1, kappa, Human IgG1 anti-CD40; also called Parental anti-CD40 antibody; Parental Anti-CD40 Antibody) heavy: not shown light: DIQMTQSPSSVSASVGDRVTITCRASQGIYSWLAWYQQKPGKAPNLLIYTASTLQSGVPSRFSGSGSGTDFTLTISSLQPEDFATYYCQQANIFPLTFGGGTKVEIKRTVAAPSVFIFPPSDEQLKSGTASVVCLLNNFYPREAKVQWKVDNALQSGNSQESVTEQDSKDSTYSLSSTLTLSKADYEKHKVYACEVTHQGLSSPVTKSFNRGEC
 |  |  | no binding (tested: 1.2 nM to 300 nM) | no binding (tested: 1.2 nM to 300 nM) | parental anti-HER2 monoclonal antibody (SBT-050G1), pertuzumab (antibody, human IgG1, kappa, also called Parental anti-HER2 antibody; Parental Anti-HER2 Antibody) heavy: not shown light: not shown
